Test results reported in paper PMC4601027, “Structural Analysis of the Pin1-CPEB1 interaction and its potential role in CPEB1 degradation” (Scientific Reports, 2015).

B1: NF1: recombinant unphosphorylated fragment (88–183) of the N-terminal region of CPEB1 Isoform 1 (Uniprot Q9BZB8) (protein, UniProt Q9BZB8 88-183, looked up, fragment)
chain: GLPDANDLCLGLQSLSLTGWDRPWSTQDSDSSAQSSTHSVLSMLHNPLGNVLGKPPLSFLPLDPLGSDLVDKFPAPSVRGSRLDTRPILDSRSSSP
B2: NF2: recombinant unphosphorylated fragment (196–293) of the N-terminal region of CPEB1 Isoform 1 (Uniprot Q9BZB8) (protein, UniProt Q9BZB8 196-293, looked up, fragment)
chain: DHLSDLISSLRISPPLPFLSLSGGGPRDPLKMGVGSRMDQEQAALAAVTPSPTSASKRWPGASVWPSWDLLEAPKDPFSIEREARLHRQAAAVNEATC

Target: Pin1 WW domain
Assay: ITC titration of unphosphorylated CPEB1 N-terminal fragments with Pin1 WW domain
Assay type: binding
Conditions: Pin1 WW domain as titrant, fragment as titrate, titrations could not be efficiently saturated, data not shown
From the text: CPEB1 proteins display high sequence conservation in vertebrates (Supplementary Fig.1). To gain insight into the association of Pin1 with CPEB1 in the basal state, we prepared two recombinant fragments named NF1 (88–183) and NF2 (196–293), selected from the N-terminal region of CPEB1 (Fig. 1a). The boundaries of these constructs were chosen to be similar to that used by Nechama et al.[14], and were extended to include Ser210, known to be essential for degradation after phosphorylation by Cdc2[9]. Since target recognition of Pin1 is achieved by the interaction of the WW domain with the protein partners, we prepared an ^15N-labeled WW domain sample and monitored the chemical shift perturbations induced in the WW domain by the presence of the ligands (1:1 WW: ligand ratio) using HSQC experiments (Fig. 1b,c). These experiments reveal that, despite the low affinity associations, residues of the WW domain are clearly affected by the presence of the CPEB 1 fragments. Attempts to saturate the NMR titration using high ligand excess were precluded due to the aggregation tendency of the NF1 and NF2 fragments. […]
ITC measurements were performed using a nano ITC calorimeter (TA Instruments) at 12 °C or 25 °C. […] Protein concentration was measured in a NanoDrop™ 2000 measuring the UV absorption at 280 nm. Peptide concentration was determined by amino acid analysis. […]

Row | Molecule | binding affinity to Pin1 WW domain
1 | B1 | high μM up to the mM range
2 | B2 | high μM up to the mM range
